Legend:
[1] = molecular target: HLA-C*14:02; assay: IEDB peptide-MHC binding, purified MHC/direct/fluorescence; filed as Kd, often an IC50 or EC50 that approximates it; ≥ and ≤ were set here for values at or beyond the usual limits of such assays; conditions: source organism: Variola virus
[2] = molecular target: HLA-A*01:01; assay: IEDB peptide-MHC binding, purified MHC/competitive/fluorescence; filed as Kd, often an IC50 or EC50 that approximates it; ≥ and ≤ were set here for values at or beyond the usual limits of such assays; conditions: source organism: Shigella flexneri 2a str. 2457T
[3] = molecular target: HLA-B*35:01; assay: as above; conditions: source organism: Shigella flexneri 2a str. 2457T
[4] = molecular target: HLA-B*58:01; assay: as above; conditions: source organism: Shigella flexneri 2a str. 2457T
[5] = molecular target: HLA-C*08:02; assay: IEDB peptide-MHC binding, purified MHC/direct/fluorescence; filed as Kd, often an IC50 or EC50 that approximates it; ≥ and ≤ were set here for values at or beyond the usual limits of such assays; conditions: source organism: Shigella flexneri 2a str. 2457T
[6] = molecular target: HLA-C*04:01; assay: as above; conditions: source organism: Shigella flexneri 2a str. 2457T
[7] = molecular target: HLA-A*02:50; assay: IEDB peptide-MHC binding, purified MHC/competitive/fluorescence; filed as Kd, often an IC50 or EC50 that approximates it; ≥ and ≤ were set here for values at or beyond the usual limits of such assays; conditions: source organism: Vibrio vulnificus YJ016
[8] = molecular target: HLA-A*02:01; assay: IEDB peptide-MHC binding, purified MHC/direct/fluorescence; filed as Kd, often an IC50 or EC50 that approximates it; ≥ and ≤ were set here for values at or beyond the usual limits of such assays
[9] = molecular target: HLA-A*11:01; assay: as above; conditions: source organism: Vibrio vulnificus
[10] = molecular target: HLA-A*02:19; assay: as above; conditions: source organism: Vibrio vulnificus CMCP6
[11] = molecular target: HLA-A*02:06; assay: as above
[12] = molecular target: HLA-B*18:01; assay: as above
[13] = molecular target: HLA-A*69:01; assay: as above; conditions: source organism: Vibrio vulnificus
[14] = molecular target: HLA-A*01:01; assay: as above; conditions: source organism: Vibrio vulnificus
[15] = molecular target: HLA-B*08:02; assay: as above; conditions: source organism: Vibrio vulnificus CMCP6
[16] = molecular target: HLA-B*08:01; assay: as above; conditions: source organism: Vibrio vulnificus CMCP6
[17] = molecular target: HLA-A*24:02; assay: as above; conditions: source organism: Vibrio vulnificus
[18] = molecular target: HLA-A*02:11; assay: as above; conditions: source organism: Vibrio vulnificus CMCP6
[19] = molecular target: HLA-B*40:01; assay: as above; conditions: source organism: Vibrio vulnificus
[20] = molecular target: HLA-A*02:12; assay: as above
[21] = molecular target: HLA-B*27:05; assay: as above; conditions: source organism: Vibrio vulnificus
[22] = molecular target: HLA-B*07:02; assay: as above; conditions: source organism: Vibrio vulnificus
[23] = molecular target: HLA-A*03:01; assay: as above
[24] = molecular target: HLA-B*44:02; assay: as above; conditions: source organism: Vibrio vulnificus
[25] = molecular target: HLA-B*58:01; assay: as above; conditions: source organism: Vibrio vulnificus
[26] = molecular target: HLA-A*02:03; assay: as above; conditions: source organism: Vibrio vulnificus CMCP6
[27] = molecular target: HLA-A*31:01; assay: as above; conditions: source organism: Vibrio vulnificus
[28] = molecular target: HLA-B*15:01; assay: as above
[29] = molecular target: HLA-B*46:01; assay: as above
[30] = molecular target: HLA-B*27:05; assay: IEDB peptide-MHC binding, cellular MHC/competitive/radioactivity; ≥ and ≤ were set here for values at or beyond the usual limits of such assays; conditions: source organism: Hepacivirus hominis
[31] = molecular target: HLA-A*02:01; assay: IEDB peptide-MHC binding, purified MHC/competitive/radioactivity; ≥ and ≤ were set here for values at or beyond the usual limits of such assays; conditions: source organism: Hepatitis C virus (isolate H77)
[32] = molecular target: HLA-A*02:06; assay: as above; conditions: source organism: Hepatitis C virus (isolate H77)
[33] = molecular target: HLA-A*02:02; assay: as above; conditions: source organism: Hepatitis C virus (isolate H77)
[34] = molecular target: HLA-A*02:03; assay: as above; conditions: source organism: Hepatitis C virus (isolate H77)
[35] = molecular target: HLA-B*27:03; assay: IEDB peptide-MHC binding, purified MHC/direct/fluorescence; filed as Kd, often an IC50 or EC50 that approximates it; ≥ and ≤ were set here for values at or beyond the usual limits of such assays; conditions: source organism: Salmonella enterica subsp. enterica serovar Typhimurium
[36] = molecular target: HLA-B*57:01; assay: as above; conditions: source organism: Salmonella enterica subsp. enterica serovar Typhimurium
[37] = molecular target: HLA-B*15:42; assay: IEDB peptide-MHC binding, purified MHC/competitive/fluorescence; filed as Kd, often an IC50 or EC50 that approximates it; ≥ and ≤ were set here for values at or beyond the usual limits of such assays; conditions: source organism: Acetivibrio thermocellus ATCC 27405
[38] = molecular target: HLA-B*45:06; assay: as above; conditions: source organism: Acetivibrio thermocellus ATCC 27405
[39] = molecular target: HLA-C*04:01; assay: as above; conditions: source organism: Acetivibrio thermocellus ATCC 27405
[40] = molecular target: HLA-B*83:01; assay: as above; conditions: source organism: Acetivibrio thermocellus ATCC 27405
[41] = source organism: Vibrio vulnificus
[42] = source organism: Vibrio vulnificus CMCP6
[43] = source organism: Salmonella enterica subsp. enterica serovar Typhimurium

VIYEAVIHL
Kd [1]: 195 nM

MSPDNALIY
Kd [2]: 89.9 nM | Kd [3]: 7.2 nM | Kd [4]: 457 nM | Kd [5]: ≥ 20000 nM | Kd [6]: ≥ 20000 nM

GLKELGDWV
Kd [7]: ≤ 0.1 nM | Kd [8, 41]: 637 nM | Kd [9]: ≥ 20000 nM | Kd [10]: ≥ 20000 nM | Kd [11, 42]: 145 nM | Kd [12, 41]: ≥ 20000 nM | Kd [13]: ≥ 5000 nM | Kd [14]: ≥ 20000 nM | Kd [15]: ≥ 20000 nM | Kd [16]: ≥ 20000 nM | Kd [17]: ≥ 20000 nM | Kd [18]: 9 nM | Kd [19]: ≥ 20000 nM | Kd [20, 42]: 120 nM | Kd [21]: ≥ 20000 nM | Kd [22]: ≥ 20000 nM | Kd [23, 41]: ≥ 20000 nM | Kd [24]: ≥ 20000 nM | Kd [25]: ≥ 20000 nM | Kd [26]: 2 nM | Kd [27]: ≥ 20000 nM | Kd [28, 41]: ≥ 20000 nM | Kd [29, 41]: ≥ 20000 nM

ARHTPVNSW
IC50 [30]: 338 nM

KLVGLGLNAV
IC50 [31]: 17 nM | IC50 [32]: 9 nM | IC50 [33]: 14 nM | IC50 [34]: 8.2 nM

QVNDVLHSV
Kd [8, 43]: 41 nM | Kd [11, 43]: 3 nM | Kd [12, 43]: ≥ 20000 nM | Kd [20, 43]: 91 nM | Kd [23, 43]: ≥ 20000 nM | Kd [35]: ≥ 20000 nM | Kd [36]: ≥ 20000 nM | Kd [28, 43]: ≥ 20000 nM | Kd [29, 43]: ≥ 20000 nM

TVIDVNTGK
Kd [37]: ≥ 5000 nM | Kd [38]: ≥ 5000 nM | Kd [39]: ≥ 5000 nM | Kd [40]: ≥ 5000 nM
